Data from the Immune Epitope Database (IEDB).
Values belong to the sequence of their own block, whether it stands above or below them.

How the values were obtained:
[1] = molecular target: HLA-A*31:01; experiment: IEDB peptide-MHC binding, purified MHC/competitive/fluorescence; filed as Kd, often an IC50 or EC50 that approximates it; ≥ and ≤ were set here for values at or beyond the usual limits of such assays
[2] = molecular target: HLA-A*03:01; experiment: as above
[3] = molecular target: HLA-B*08:01; experiment: IEDB peptide-MHC binding, purified MHC/competitive/radioactivity; filed as Kd, often an IC50 or EC50 that approximates it; ≥ and ≤ were set here for values at or beyond the usual limits of such assays
[4] = molecular target: HLA-B*15:03; experiment: as above
[5] = molecular target: HLA-A*68:01; experiment: as above; conditions: source organism: Dengue virus 2 Jamaica/1409/1983
[6] = molecular target: HLA-A*11:01; experiment: IEDB peptide-MHC binding, purified MHC/direct/fluorescence; filed as Kd, often an IC50 or EC50 that approximates it; ≥ and ≤ were set here for values at or beyond the usual limits of such assays
[7] = molecular target: HLA-A*30:01; experiment: IEDB peptide-MHC binding, purified MHC/competitive/radioactivity; filed as Kd, often an IC50 or EC50 that approximates it; ≥ and ≤ were set here for values at or beyond the usual limits of such assays; conditions: source organism: Vaccinia virus WR
[8] = molecular target: HLA-A*32:01; experiment: as above; conditions: source organism: Vaccinia virus WR
[9] = molecular target: HLA-B*15:01; experiment: as above
[10] = molecular target: HLA-A*02:03; experiment: as above
[11] = molecular target: HLA-A*02:12; experiment: IEDB peptide-MHC binding, purified MHC/direct/fluorescence; filed as Kd, often an IC50 or EC50 that approximates it; ≥ and ≤ were set here for values at or beyond the usual limits of such assays; conditions: source organism: Bacillus cereus 03BB108
[12] = molecular target: HLA-A*03:01; experiment: as above
[13] = molecular target: HLA-A*02:06; experiment: IEDB peptide-MHC binding, purified MHC/competitive/radioactivity; filed as Kd, often an IC50 or EC50 that approximates it; ≥ and ≤ were set here for values at or beyond the usual limits of such assays; conditions: source organism: Vaccinia virus WR
[14] = molecular target: HLA-A*02:02; experiment: as above; conditions: source organism: Vaccinia virus WR
[15] = molecular target: HLA-B*53:01; experiment: as above
[16] = molecular target: HLA-B*07:02; experiment: as above
[17] = molecular target: HLA-B*51:01; experiment: as above
[18] = molecular target: HLA-B*35:01; experiment: as above
[19] = molecular target: HLA-B*54:01; experiment: as above
[20] = molecular target: HLA-B*48:01; experiment: IEDB peptide-MHC binding, purified MHC/direct/fluorescence; filed as Kd, often an IC50 or EC50 that approximates it; ≥ and ≤ were set here for values at or beyond the usual limits of such assays; conditions: source organism: Yellow fever virus
[21] = molecular target: HLA-A*11:01; experiment: IEDB peptide-MHC binding, purified MHC/competitive/fluorescence; ≥ and ≤ were set here for values at or beyond the usual limits of such assays; conditions: source organism: West Nile virus
[22] = molecular target: HLA-A*02:01; experiment: IEDB peptide-MHC binding, purified MHC/competitive/radioactivity; filed as Kd, often an IC50 or EC50 that approximates it; ≥ and ≤ were set here for values at or beyond the usual limits of such assays
[23] = source organism: Desulfitobacterium hafniense DCB-2
[24] = source organism: Vaccinia virus WR
[25] = source organism: Vaccinia virus Copenhagen
[26] = source organism: Dengue virus 1 Brazil/97-11/1997
[27] = source organism: Yellow fever virus 1899/81
[28] = source organism: Bacillus anthracis str. Tsiankovskii-I
[29] = source organism: Vibrio vulnificus
[30] = source organism: SARS coronavirus Tor2
[31] = source organism: West Nile virus

Kd [1, 23]: 3.9 nM
Kd [2, 23]: 12.9 nM
Sequence: ALFAGDLYR

Sequence: ALMRRIAVV
Kd [3, 24]: 1350 nM

Sequence: AMKVDANYF
Kd [4, 24]: 0.149 nM

Sequence: ANVNARNRF
Kd [4, 24]: 552 nM

Sequence: AVSMANIFR
Kd [5]: 55.4 nM
Kd ([6]; source organism: Dengue virus 1 Singapore/S275/1990): 8.9 nM
Kd ([1]; source organism: dengue virus type 1): 1.37 nM

Sequence: DYRFRFRSV
Kd [3, 24]: 683 nM

Sequence: ELRDYFEQI
Kd [4, 24]: 80.2 nM
Kd [7]: ≥ 38000 nM
Kd [8]: ≥ 77800 nM
Kd [3, 24]: 12.5 nM
Kd [9, 24]: 2190 nM

Sequence: FFKFSFMYI
Kd [3, 24]: 840 nM

Sequence: FSVSFSPSL
Kd [4, 25]: 21.7 nM

Sequence: GLNSRSTSL
Kd [10, 26]: 16.4 nM
Kd [3, 26]: 14.7 nM

Sequence: GMFDWESMK
Kd [11]: 744 nM
Kd ([12]; source organism: Bacillus mycoides): 208 nM

Sequence: GTHPFSRIR
Kd [6, 27]: 326 nM
Kd [1, 27]: 6 nM

Sequence: HRRLRNKRL
Kd [3, 24]: 28.4 nM

Sequence: IISYFIFNR
Kd [1, 28]: 22.5 nM
Kd [2, 28]: 304 nM

Sequence: ILFYFANGI
Kd [4, 24]: 139 nM
Kd [8]: 92.5 nM

Sequence: IMAIGIVSIL
Kd [3, 26]: 445 nM
Kd [9, 26]: 27.2 nM

Sequence: IMFAKTLDF
Kd [4, 24]: 0.311 nM
Kd [8]: 6.82 nM

Sequence: IMRNFLRSI
Kd [10, 24]: 0.398 nM
Kd [4, 24]: 106 nM
Kd [13]: 3920 nM
Kd [14]: 485 nM

Sequence: IPIGMQFDKV
Kd [15, 24]: 590 nM
Kd [16, 24]: 4910 nM
Kd [17, 24]: 394 nM
Kd [18, 24]: 5280 nM
Kd [19, 24]: 40.4 nM

Sequence: IPSTVKTNLY
Kd [15, 24]: 213 nM
Kd [16, 24]: ≥ 25600 nM
Kd [17, 24]: ≥ 69600 nM
Kd [18, 24]: 248 nM
Kd [19, 24]: 10300 nM

Sequence: KGNVSALVK
Kd [6, 29]: 184 nM
Kd [12, 29]: 1160 nM
Kd ([1]; source organism: Vibrio vulnificus YJ016): ≥ 20000 nM

Sequence: KMRPMFAVGL
Kd [3, 26]: 4580 nM

Sequence: KPIMSMGDII
Kd [15, 24]: 90.7 nM
Kd [16, 24]: 6.49 nM
Kd [17, 24]: 425 nM
Kd [18, 24]: 622 nM
Kd [19, 24]: 1980 nM

Sequence: KPTTFMLKY
Kd [15, 30]: 24.7 nM
Kd [16, 30]: 11400 nM
Kd [17, 30]: 13000 nM
Kd [18, 30]: 41.3 nM
Kd [19, 30]: 5220 nM

Sequence: KRVVASLMR
Kd [20]: ≥ 20000 nM

Sequence: KSYETEYPK
Kd [6, 31]: 7.7 nM
Kd [12, 31]: 728 nM
IC50 [21]: 7880 nM
Kd [1, 31]: 126 nM

Sequence: KTHESHLVR
Kd ([6]; source organism: Yellow fever virus 17D): 35.6 nM
Kd ([1]; source organism: Yellow fever virus): 21.2 nM

Sequence: LLTTPKFTV
Kd ([22]; source organism: Human alphaherpesvirus 1 strain 17): 500 nM

Kd ([22]; source organism: Homo sapiens): 78 nM
Sequence: LMWITQCFL

Sequence: LNLSKFMMV
Kd [3, 24]: 102 nM

Sequence: LPEETNIGCA
Kd [15, 24]: 2080 nM
Kd [16, 24]: ≥ 20700 nM
Kd [17, 24]: ≥ 69600 nM
Kd [18, 24]: 8680 nM
Kd [19, 24]: 243 nM

Sequence: LSISCPNSL
Kd [4, 24]: 256 nM

Sequence: MCISLSTAI
Kd ([19]; source organism: Mammarenavirus lassaense): 601 nM

Sequence: MKITRPRHF
Kd [4, 24]: 1.04 nM

Sequence: MKMKKKTWL
Kd ([3]; source organism: Dengue virus 4 Philippines/H241/1956): 62.9 nM

Sequence: MLILNFCKL
Kd [3, 25]: 3.91 nM
